Measurements as given in publication PMC7943577.

Biological target: BOM1093 of Borrelia miyamotoi strain MYK3, 6xHis-tagged on the C terminus, expressed in B. garinii HT59G (Borrelia miyamotoi strain MYK3)
Test: ELISA; Maxisorp wells coated with 0.5 µg/well sonicated B. garinii HT59G/pBOM1093 in TBS; recombinant human Vn 6.25-400 nM, 2 h at room temperature; detected with mouse anti-human Vn IgG; values of the mock strain (pBSV2) subtracted; KD fitted in Prism

recombinant human vitronectin (from UniProt P04004 20-478) (natural protein)
Kd: 0.0108 µM
